Kd, Km and kcat data for four molecules are collected here from article PMC8546961, “Cofactor Specificity of Glucose-6-Phosphate Dehydrogenase Isozymes in Pseudomonas putida Reveals a General Principle Underlying Glycolytic Strategies in Bacteria” (mSystems, 2021).

One data set addresses T1, G6PDH-C (Pseudomonas putida, UniProt Q88C32).
T1 construct: gene zwf
T1 sequence (Q88C32 1-485): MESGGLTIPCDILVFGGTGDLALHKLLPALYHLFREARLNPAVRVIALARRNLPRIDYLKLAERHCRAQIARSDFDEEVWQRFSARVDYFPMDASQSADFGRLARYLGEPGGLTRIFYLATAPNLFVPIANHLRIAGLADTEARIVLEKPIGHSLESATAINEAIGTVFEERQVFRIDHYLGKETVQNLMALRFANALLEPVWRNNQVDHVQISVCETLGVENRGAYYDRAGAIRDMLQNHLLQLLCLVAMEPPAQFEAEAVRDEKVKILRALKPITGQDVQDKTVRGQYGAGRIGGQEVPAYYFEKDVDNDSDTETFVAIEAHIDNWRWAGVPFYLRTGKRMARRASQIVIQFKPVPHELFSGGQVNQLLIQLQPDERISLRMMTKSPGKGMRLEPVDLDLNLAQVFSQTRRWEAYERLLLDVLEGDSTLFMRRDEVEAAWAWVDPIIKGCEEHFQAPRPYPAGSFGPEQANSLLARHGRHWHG
As to the kind of experiment: initial rates, NAD(P)H formation at […] nm, global fit (DYNAFIT), rapid-equilibrium random-ordered model. It is filed as biochemical. The following applies: buffer A (50 mM Tris-HCl, 5 mM NaCl, 5 mM MgCl2, 5% glycerol), pH 8.0, 30°C, G6P varied.

Another data set deals with T2, G6PDH-B (Pseudomonas putida, UniProt Q88FP7).
T2 construct: gene zwfB
T2 sequence (Q88FP7 1-501): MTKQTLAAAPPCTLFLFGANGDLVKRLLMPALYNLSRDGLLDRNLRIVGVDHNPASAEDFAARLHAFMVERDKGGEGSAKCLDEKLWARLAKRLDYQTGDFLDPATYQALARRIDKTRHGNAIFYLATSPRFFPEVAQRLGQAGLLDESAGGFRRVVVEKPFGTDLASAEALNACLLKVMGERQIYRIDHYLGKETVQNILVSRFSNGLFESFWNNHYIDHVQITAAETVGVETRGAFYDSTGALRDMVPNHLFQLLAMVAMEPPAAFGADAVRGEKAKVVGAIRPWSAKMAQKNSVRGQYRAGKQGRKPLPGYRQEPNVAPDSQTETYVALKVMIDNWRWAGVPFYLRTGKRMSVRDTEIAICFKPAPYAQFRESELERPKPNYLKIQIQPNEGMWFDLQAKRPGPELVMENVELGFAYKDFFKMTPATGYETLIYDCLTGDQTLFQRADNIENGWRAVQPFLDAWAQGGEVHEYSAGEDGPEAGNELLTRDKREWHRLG
Described as above. The following applies: buffer A (50 mM Tris-HCl, 5 mM NaCl, 5 mM MgCl2, 5% glycerol), pH 8.0, 30°C, G6P varied. It is filed as biochemical.

Substrate in data set [1]: NC(=O)c1ccc[n+]([C@@H]2O[C@H](COP(=O)(O)OP(=O)(O)OC[C@H]3O[C@@H](n4cnc5c(N)ncnc54)[C@H](OP(=O)(O)O)[C@@H]3O)[C@@H](O)[C@H]2O)c1
As to the kind of experiment: purified protein. It is filed as biochemical, Pseudomonas putida. The following applies: G6P co-substrate, buffer A (50 mM Tris-HCl, 5 mM NaCl, 5 mM MgCl2, 5% glycerol), pH 8.0, 30°C.

Substrate in data set [2]: NC(=O)c1ccc[n+]([C@@H]2O[C@H](COP(=O)(O)OP(=O)(O)OC[C@H]3O[C@@H](n4cnc5c(N)ncnc54)[C@H](O)[C@@H]3O)[C@@H](O)[C@H]2O)c1
Description: purified protein. It is filed as biochemical, Pseudomonas putida. The following applies: G6P co-substrate, buffer A (50 mM Tris-HCl, 5 mM NaCl, 5 mM MgCl2, 5% glycerol), pH 8.0, 30°C.

The mark [3] stands for this setting: dissociation constant of NAD+ from free enzyme, read-out: NAD^+ / Ki.
The mark [4] stands for this setting: dissociation constant of NADP+ from free enzyme, read-out: NADP^+ / Ki.

Read-outs that look alike come from different tables or passages of the source.

For the molecule `NC(=O)c1ccc[n+]([C@@H]2O[C@H](COP(=O)(O)OP(=O)(O)OC[C@H]3O[C@@H](n4cnc5c(N)ncnc54)[C@H](O)[C@@H]3O)[C@@H](O)[C@H]2O)c1` [NAD^+], the Kd at G6PDH-C (setting [3]) came to 5800 µM; at G6PDH-B (setting [3]), 301 ± 48 µM.
Turning to `NC(=O)c1ccc[n+]([C@@H]2O[C@H](COP(=O)(O)OP(=O)(O)OC[C@H]3O[C@@H](n4cnc5c(N)ncnc54)[C@H](OP(=O)(O)O)[C@@H]3O)[C@@H](O)[C@H]2O)c1` [NADP^+], the values for the Kd at G6PDH-C (setting [4]) and at G6PDH-B (setting [4]) were 9.2 ± 1.9 µM and 790 ± 110 µM, respectively.

B1: G6PDH-B (Pseudomonas putida KT2440) (protein)
chain: T2 sequence (Q88FP7 1-501)
One may read the Km as the substrate concentration at which the rate is half of its maximum. Consider B1, for which, in the data set “purified protein [1]”, the Km was 165 ± 11 µM and the kcat is 113 ± 1 s^–1. In the data set “purified protein [2]”, the Km is 151 ± 7 µM and the kcat was 120 ± 1 s^–1.

B2: G6PDH-C (Pseudomonas putida KT2440) (protein)
chain: T1 sequence (Q88C32 1-485)
For B2, the Km in the data set “purified protein [1]” was 3.2 ± 0.7 µM; in the data set “purified protein [2]”, “(9.5 ± 1.1)×10^3 μM”. In addition, the kcat is 0.54 ± 0.02 s^–1 in “purified protein [1]” and 0.77 ± 0.04 s^–1 in the data set “purified protein [2]”.
